Experimental data reported in patent publication US20210187120A1 (WISCONSIN ALUMNI RESEARCH FOUNDATION, published 2021).
One block for each binder: values may come before it. No end group written: not given here.

What was measured:
[1] = target: T1, PD-L1 proteins (R&D systems) (UniProt Q9NZQ7 19-239, limits assumed); assay: SPR (BIAcore X), PD-L1 immobilized on CM5 chip, four concentrations (17-42 µM by the legend)
T1 construct: Commercial recombinant PD-L1; It was immobilized on a CM5 chip for SPR and used in solution for the FP assay; also called immobilized PD-L1 proteins
T1 sequence (Q9NZQ7 19-239 limits assumed): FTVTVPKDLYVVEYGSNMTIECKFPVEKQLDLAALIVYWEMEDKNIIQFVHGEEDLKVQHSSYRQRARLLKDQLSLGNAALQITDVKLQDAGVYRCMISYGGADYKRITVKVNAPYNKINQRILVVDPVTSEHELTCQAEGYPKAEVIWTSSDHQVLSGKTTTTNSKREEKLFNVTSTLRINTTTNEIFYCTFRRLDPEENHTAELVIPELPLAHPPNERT
Experimental: (§1) Surface plasma resonance (SPR). SPR analysis was done using a BIAcore™ X (Pharmacia Biosensor AB, Uppsala, Sweden). In short, PD-L1 proteins (R&D systems) were immobilized onto carboxylated dextran-coated gold film surface of sensor chip (CM5 sensor chip, GE Healthcare) through EDC/NHS chemistry. 30 μL of sample solution was injected at a flow rate of […]. Sample solution was allowed to flow into both channels (channel 1 for reference, channel 2 with PD-L1), and the final SPR sensorgrams were obtained by subtracting the […].

[2] = target: T1, PD-L1 proteins (R&D systems); assay: SPR, PD-L1 immobilized on CM5 chip
Experimental: as §1

[3] = target: T2, PD-L1 on 786-O cells (PD-L1 overexpressing human renal cell carcinoma line) and MCF-7 cells (low PD-L1) (human, UniProt Q9NZQ7 19-290); assay: cell-based or functional assay
T2 sequence (Q9NZQ7 19-290): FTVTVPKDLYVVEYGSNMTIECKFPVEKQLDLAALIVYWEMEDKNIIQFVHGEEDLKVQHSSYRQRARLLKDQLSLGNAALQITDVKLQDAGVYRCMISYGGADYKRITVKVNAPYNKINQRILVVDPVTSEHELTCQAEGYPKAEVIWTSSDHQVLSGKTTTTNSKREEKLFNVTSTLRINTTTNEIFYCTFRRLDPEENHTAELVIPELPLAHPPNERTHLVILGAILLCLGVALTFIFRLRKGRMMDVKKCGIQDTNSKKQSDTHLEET

[4] = target: T1, PD-L1 proteins (R&D systems); assay: SPR (BIAcore X), PD-L1 immobilized on CM5 chip, four concentrations (45-270 nM by the legend)
Experimental: as §1

[5] = target: T1, PD-L1 proteins (R&D systems); assay: fluorescence polarization, fβH2_mt titrated with PD-L1 in PBS; the concentration varied is that of PD-L1
Experimental: Fluorescence polarization (FP) assay. FP assay in PBS was used the PD-L1 binding and competition assays (λex=480 nm; λem=535 nm). Fluorescence anisotropy measurements were performed at room temperature, in a 384-well plate, and using an Infinite® M1000 Pro microplate reader (Tecan). A fβH2_mt/PD-L1 complex was used for the FP competition assay after 30 min incubation time and titrated with the competitors.

[6] = target: T2, PD-L1 on 786-O cells (PD-L1 …); assay: fluorescence microscopy (rhodamine), cells treated for 1 h

- Kd [1]: 119000 nM
- koff [1]: 0.127 s⁻¹
B1: free βH2_mt peptide (peptide)
peptide: HVVWHRESPSGQTDTKAA-NH2
notes: also called H2_mt peptides; free peptides

- fold decrease of the dissociation rate constant (kd) compared to the free peptide [2]: ~180 times
- IL-2 secretion from Jurkat T cells co-cultured with 786-O cells, compared with the non-treated cancer cells [3]: 1.52 fold
- Kd [4]: 2.75 nM
- koff [4]: 0.000693 s⁻¹
- kon [4]: 252000 M⁻¹ s⁻¹
Binder: HVVWHRESPSGQTDTKAA-NH2 (other, not fully specified, also called G7-βH2_mt conjugates; DPC) [G7-βH2_mt (βH2_mt peptides conjugated to 90% acetylated G7 PAMAM dendrimer)]

- EC50 (read off the curve) [5]: ~300 nM
B2: fluorescein-conjugated βH2_mt (fβH2_mt) peptide (peptide)
peptide: HVVWHRESPSGQTDTKAA-NH2
modifications: also: fluorescein-conjugated, position not given here
notes: Tracer of the fluorescence polarization assay

- binding result [6]: binds
B3: pL1TZ (Trp-Zip βH2 mutant peptide) (peptide)
peptide: HKVWHWESPSGQWDTWAA-NH2
notes: Free tryptophan-zipper peptide; also called pLiTZ
